Where only a bound is given, the exact number is not on record here.

The results in this text go back to US20090276160A1 (published 2009).

Among the targets are uPA (Chemicon) (human, UniProt P00749 21-431, limits assumed); Hepsin (residues 45-417) (human, UniProt P05981 45-417); Chymotrypsin (Sigma) (human, UniProt P17538 19-263).
What all share (experiment): cell-based or functional assay
Assay [1] addresses T1, Hepatocyte growth factor activator (HGFA), activated 34 kDa short form, residues Val373 to Ser655 with a … (human, UniProt Q04756 408-655, single N-acetylglucosamine attached to Asn74 (chymotrypsinogen numbering)).
T1 sequence 1: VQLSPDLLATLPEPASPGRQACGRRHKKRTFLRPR
T1 sequence 2: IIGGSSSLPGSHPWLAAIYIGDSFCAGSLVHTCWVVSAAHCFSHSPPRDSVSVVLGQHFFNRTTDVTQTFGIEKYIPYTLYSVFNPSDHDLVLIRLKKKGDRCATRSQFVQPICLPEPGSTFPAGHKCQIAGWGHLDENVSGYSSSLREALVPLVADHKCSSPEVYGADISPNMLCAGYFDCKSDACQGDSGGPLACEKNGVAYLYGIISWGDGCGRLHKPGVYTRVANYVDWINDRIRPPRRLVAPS

The target of assay [2] is Factor XIa (Haematologic Technologies) (human, UniProt P03951 19-625).
Assay [3] has as its target T2, Factor XIIa (American Diagnostica) (human, UniProt P00748 20-615, limits assumed).
T2 sequence (looked up): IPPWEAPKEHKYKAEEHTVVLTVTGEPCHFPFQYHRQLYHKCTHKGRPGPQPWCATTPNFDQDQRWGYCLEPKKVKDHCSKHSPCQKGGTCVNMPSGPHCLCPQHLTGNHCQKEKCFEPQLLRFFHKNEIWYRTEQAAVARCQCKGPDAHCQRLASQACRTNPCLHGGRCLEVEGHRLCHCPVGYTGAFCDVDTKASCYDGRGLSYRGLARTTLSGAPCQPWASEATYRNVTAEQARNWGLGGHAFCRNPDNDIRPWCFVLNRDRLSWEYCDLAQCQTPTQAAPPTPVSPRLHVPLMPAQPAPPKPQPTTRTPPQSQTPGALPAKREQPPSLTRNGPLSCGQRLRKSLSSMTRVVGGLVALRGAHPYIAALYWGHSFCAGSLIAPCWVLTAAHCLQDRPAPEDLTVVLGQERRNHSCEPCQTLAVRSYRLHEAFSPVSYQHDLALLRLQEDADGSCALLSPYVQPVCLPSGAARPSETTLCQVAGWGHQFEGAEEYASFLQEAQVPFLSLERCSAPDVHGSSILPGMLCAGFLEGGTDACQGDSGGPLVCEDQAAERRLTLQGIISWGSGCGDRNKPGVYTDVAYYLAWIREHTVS

The target of assay [4] is Thrombin (Haematologic Technologies) (human, UniProt P00734 328-622).
Assay [5] concerns the target Tissue factor/factor VIIa complex: human tissue factor (residues 1-219) with human recombinant FVIIa (human, UniProt P13726 33-251; P08709 61-466).
For assay [6], the target named is Factor Xa (Haematologic Technologies) (human, UniProt P00742 41-179; P00742 235-488, limits assumed).
Chain of Factor Xa (Haematologic Technologies) (P00742 41-179 limits assumed, chain 1 of 2): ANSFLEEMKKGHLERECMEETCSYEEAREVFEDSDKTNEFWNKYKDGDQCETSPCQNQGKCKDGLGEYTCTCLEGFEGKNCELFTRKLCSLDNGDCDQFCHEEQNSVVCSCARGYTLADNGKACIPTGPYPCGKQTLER
Chain of Factor Xa (Haematologic Technologies) (P00742 235-488 limits assumed, chain 2 of 2): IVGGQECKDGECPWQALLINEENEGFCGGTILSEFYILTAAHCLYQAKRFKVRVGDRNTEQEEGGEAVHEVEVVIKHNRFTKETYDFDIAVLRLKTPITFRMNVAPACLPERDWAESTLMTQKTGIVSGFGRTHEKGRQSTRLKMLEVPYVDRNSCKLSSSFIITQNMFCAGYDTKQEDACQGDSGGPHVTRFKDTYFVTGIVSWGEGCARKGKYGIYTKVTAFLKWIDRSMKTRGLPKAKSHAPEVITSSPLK
Assay [7] addresses Activated Protein C (Haematologic Technologies) (human, UniProt P04070 43-197; P04070 212-461).
Assay [8] concerns the target T3, Complement factor C1s (Calbiochem) (human, UniProt P09871 16-688).
T3 sequence (looked up): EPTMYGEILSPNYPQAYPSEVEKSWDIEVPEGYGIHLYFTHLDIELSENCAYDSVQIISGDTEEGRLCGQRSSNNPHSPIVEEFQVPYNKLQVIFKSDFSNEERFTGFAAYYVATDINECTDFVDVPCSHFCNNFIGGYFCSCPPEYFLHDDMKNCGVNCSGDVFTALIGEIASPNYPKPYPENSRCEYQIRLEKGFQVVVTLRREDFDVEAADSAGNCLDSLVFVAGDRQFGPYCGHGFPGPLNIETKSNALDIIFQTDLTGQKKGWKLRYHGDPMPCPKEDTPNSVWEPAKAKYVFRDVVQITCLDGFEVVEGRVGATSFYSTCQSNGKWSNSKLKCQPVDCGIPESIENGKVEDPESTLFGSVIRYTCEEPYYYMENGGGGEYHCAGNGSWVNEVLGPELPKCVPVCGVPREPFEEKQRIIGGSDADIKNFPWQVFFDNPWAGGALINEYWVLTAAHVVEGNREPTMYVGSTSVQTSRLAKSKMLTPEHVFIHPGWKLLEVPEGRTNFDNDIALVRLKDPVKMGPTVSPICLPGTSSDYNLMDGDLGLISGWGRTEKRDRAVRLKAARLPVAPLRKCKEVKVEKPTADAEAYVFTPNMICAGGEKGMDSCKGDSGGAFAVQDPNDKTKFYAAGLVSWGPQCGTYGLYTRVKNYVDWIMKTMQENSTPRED

Assay [9] has as its target tPA (Activase, Genentech) (human, UniProt P00750 36-562).
For assay [10], the target named is T4, Matriptase (residues 615-855) (human, UniProt Q9Y5Y6 615-855).
T4 sequence (looked up): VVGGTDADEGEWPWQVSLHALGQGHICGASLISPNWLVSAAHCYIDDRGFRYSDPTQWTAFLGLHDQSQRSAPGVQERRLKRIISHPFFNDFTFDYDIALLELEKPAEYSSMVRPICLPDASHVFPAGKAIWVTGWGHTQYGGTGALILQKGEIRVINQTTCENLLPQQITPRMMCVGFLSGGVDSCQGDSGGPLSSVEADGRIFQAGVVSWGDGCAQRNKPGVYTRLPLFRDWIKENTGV

Assay [11] has as its target Bovine trypsin (Worthington) (bovine, UniProt P00760 24-246).
Assay [12] addresses Plasmin (Haematologic Technologies) (human, UniProt P00747 97-810, limits assumed).
Assay [13] has as its target Plasma kallikrein (American Diagnostica) (human, UniProt P03952 20-638).

Chain of Tissue factor/factor VIIa complex: human tissue factor (residues 1-219) with human recombinant FVIIa (P13726 33-251 limits assumed, chain 1 of 2): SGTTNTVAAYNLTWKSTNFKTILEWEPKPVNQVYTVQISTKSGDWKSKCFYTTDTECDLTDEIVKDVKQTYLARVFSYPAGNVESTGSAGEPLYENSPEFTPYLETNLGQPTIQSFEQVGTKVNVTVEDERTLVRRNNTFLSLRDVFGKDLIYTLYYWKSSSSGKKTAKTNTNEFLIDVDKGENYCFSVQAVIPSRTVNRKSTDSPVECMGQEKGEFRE
Chain of Tissue factor/factor VIIa complex: human tissue factor (residues 1-219) with human recombinant FVIIa (P08709 61-466 limits assumed, chain 2 of 2): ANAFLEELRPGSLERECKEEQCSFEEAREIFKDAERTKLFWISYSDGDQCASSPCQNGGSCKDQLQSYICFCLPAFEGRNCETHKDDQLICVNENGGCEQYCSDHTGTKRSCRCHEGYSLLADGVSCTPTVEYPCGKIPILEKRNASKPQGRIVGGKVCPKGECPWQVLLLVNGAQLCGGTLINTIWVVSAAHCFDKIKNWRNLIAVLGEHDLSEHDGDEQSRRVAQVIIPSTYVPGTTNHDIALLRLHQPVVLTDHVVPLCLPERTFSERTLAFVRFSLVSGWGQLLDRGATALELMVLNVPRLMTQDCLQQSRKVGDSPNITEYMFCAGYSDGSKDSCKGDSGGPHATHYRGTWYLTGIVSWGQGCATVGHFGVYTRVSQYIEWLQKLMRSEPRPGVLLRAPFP
Chain of Plasmin (Haematologic Technologies) (P00747 97-810 limits assumed): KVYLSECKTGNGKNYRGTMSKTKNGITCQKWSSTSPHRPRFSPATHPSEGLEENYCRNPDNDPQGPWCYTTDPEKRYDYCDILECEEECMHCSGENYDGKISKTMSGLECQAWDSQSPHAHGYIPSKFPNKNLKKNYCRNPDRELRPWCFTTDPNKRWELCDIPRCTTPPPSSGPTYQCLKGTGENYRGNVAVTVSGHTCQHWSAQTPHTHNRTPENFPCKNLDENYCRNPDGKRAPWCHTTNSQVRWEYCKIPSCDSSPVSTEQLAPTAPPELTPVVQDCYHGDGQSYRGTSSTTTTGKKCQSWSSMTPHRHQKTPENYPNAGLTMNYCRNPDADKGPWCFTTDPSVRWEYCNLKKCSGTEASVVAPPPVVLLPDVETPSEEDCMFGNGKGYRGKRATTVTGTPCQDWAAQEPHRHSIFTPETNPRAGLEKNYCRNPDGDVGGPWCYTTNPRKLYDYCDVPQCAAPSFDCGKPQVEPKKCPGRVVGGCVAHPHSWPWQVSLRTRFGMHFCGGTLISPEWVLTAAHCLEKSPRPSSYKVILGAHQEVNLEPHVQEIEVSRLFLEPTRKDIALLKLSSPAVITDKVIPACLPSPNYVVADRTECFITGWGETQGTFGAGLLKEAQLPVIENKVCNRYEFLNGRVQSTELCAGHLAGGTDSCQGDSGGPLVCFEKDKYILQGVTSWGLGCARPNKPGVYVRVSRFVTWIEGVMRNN
Chain of tPA (Activase, Genentech) (P00750 36-562 limits assumed): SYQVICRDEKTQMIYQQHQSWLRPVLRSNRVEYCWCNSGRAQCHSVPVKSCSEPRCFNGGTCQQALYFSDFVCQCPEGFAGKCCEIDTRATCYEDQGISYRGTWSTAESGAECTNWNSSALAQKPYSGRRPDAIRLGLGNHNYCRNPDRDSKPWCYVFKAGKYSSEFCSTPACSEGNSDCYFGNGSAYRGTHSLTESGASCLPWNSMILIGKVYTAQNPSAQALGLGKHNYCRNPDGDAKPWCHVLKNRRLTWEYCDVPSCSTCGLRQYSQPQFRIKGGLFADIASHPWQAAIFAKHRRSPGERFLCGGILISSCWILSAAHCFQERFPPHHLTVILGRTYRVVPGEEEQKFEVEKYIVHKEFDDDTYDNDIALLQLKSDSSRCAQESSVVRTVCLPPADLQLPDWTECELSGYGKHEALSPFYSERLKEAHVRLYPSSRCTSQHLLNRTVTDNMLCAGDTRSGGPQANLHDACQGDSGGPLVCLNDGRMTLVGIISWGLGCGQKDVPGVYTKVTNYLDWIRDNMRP
Chain of Activated Protein C (Haematologic Technologies) (P04070 43-197, form in doubt, chain 1 of 2): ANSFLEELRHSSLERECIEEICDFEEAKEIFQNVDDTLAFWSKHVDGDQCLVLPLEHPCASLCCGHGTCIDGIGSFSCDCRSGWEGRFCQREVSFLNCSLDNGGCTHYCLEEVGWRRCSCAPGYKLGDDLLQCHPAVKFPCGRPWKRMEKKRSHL
Chain of Activated Protein C (Haematologic Technologies) (P04070 212-461, form in doubt, chain 2 of 2): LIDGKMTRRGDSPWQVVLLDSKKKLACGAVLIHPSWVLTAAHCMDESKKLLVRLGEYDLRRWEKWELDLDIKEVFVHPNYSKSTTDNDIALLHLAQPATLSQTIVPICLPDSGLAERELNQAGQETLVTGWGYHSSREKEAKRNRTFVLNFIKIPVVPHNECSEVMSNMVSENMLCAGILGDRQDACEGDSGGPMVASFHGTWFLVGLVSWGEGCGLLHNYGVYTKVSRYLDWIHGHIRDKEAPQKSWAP
Chain of Bovine trypsin (Worthington) (P00760 24-246): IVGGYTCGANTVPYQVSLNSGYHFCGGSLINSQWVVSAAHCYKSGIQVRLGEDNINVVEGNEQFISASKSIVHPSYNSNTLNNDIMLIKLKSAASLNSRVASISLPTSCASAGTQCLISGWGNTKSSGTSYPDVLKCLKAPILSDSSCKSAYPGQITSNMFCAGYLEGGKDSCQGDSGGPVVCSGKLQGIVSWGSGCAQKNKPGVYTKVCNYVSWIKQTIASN
Chain of Hepsin (residues 45-417) (P05981 45-417 limits assumed): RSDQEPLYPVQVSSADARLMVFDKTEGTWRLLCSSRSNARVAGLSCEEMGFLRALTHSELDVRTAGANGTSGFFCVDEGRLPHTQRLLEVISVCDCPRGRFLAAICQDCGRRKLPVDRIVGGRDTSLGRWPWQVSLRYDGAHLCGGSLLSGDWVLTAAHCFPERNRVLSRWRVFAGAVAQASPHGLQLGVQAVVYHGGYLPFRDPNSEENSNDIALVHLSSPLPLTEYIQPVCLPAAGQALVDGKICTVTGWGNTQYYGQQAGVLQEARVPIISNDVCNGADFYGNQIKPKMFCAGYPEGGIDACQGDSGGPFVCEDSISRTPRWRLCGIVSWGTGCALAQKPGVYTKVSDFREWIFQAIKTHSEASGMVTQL
Chain of Chymotrypsin (Sigma) (P17538 19-263): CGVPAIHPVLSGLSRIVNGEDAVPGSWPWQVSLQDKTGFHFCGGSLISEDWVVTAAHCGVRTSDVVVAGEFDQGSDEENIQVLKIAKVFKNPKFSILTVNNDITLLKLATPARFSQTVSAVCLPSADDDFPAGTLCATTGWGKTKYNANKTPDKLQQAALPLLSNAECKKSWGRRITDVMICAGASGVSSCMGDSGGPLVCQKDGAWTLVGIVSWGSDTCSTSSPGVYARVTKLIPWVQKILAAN
Chain of Plasma kallikrein (American Diagnostica) (P03952 20-638 limits assumed): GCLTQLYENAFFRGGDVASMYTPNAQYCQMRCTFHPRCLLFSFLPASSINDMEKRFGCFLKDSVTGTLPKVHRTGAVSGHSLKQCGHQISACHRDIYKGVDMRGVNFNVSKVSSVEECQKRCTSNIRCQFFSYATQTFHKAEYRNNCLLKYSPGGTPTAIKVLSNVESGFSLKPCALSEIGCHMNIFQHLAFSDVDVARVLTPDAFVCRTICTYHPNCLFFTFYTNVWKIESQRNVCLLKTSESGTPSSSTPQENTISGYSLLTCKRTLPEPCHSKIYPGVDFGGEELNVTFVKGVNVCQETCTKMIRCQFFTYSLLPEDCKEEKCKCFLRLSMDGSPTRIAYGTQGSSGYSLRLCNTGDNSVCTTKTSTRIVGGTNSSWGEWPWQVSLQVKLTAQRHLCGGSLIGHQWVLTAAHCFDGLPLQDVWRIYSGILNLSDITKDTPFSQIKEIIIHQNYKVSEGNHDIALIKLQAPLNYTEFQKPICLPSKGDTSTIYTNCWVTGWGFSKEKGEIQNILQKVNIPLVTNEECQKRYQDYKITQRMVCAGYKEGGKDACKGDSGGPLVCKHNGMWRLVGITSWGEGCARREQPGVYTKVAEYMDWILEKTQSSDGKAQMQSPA

B1: First Kunitz domain (KD1) of human HAI-1B, amino acids 246-303 of the precursor, with N-terminal polyhistidine leader (other)
chain: MKHQHQHQHQHQHQMHQTEDYCLASNKVGRCRGSFPRWYYDPTEQICKSFVYGGCLGNKNNYLREEECILACRGV
For the molecule B1, the “IC50 (nM), inhibition of enzyme activity on chromogenic substrate” value (shortened to “IC50 (nM), inhibition of enzyme activity”) in [1] was 4 nM; in [2], greater than 1000 nM; in assay [3] it was greater than 1000 nM; in assay [4] it was greater than 1000 nM; in assay [5], greater than 1000 nM; in [6], greater than 1000 nM. The “IC50 (nM), inhibition of enzyme activity” value in assay [7] is greater than 1000 nM; in assay [8], greater than 1000 nM; in assay [9], greater than 1000 nM; with uPA (Chemicon), greater than 1000 nM; in assay [10] it was 1.7 nM; with Hepsin (residues 45-417), 6.7 nM. Besides, the “IC50 (nM), inhibition of enzyme activity” value in assay [11] was 0.7 nM; in assay [12], 115 nM; in assay [13] it was 21 nM; in the assay with Chymotrypsin (Sigma), greater than 1000 nM.
